The target of this test is T1, His-Msb3 (S. cerevisiae, UniProt P48566 1-633).
T1 sequence: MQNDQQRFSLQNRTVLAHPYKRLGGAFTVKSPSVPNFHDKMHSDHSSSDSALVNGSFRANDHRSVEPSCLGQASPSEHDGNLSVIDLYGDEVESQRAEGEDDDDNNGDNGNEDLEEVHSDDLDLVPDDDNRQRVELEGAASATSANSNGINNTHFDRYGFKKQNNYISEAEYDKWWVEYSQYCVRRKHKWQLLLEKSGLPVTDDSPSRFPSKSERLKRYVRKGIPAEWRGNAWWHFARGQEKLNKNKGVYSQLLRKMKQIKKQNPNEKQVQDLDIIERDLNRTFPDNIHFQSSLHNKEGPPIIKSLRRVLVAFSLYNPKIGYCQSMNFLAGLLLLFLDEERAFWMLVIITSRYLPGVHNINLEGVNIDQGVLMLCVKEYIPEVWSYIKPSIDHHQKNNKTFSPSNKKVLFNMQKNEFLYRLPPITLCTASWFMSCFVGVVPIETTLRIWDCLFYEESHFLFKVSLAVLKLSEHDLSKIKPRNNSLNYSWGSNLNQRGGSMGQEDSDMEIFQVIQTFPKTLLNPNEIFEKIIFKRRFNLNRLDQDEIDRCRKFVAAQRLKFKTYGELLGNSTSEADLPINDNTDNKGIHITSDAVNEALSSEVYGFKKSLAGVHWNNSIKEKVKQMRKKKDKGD
Nature of the test: pull-down.

B1: GST-Vps21 (preloaded with GDP) (enzyme)
chain: MNTSVTSIKLVLLGEAAVGKSSIVLRFVSNDFAENKEPTIGAAFLTQRVTINEHTVKFEIWDTAGQERFASLAPMYYRNAQAALVVYDVTKPQSFIKARHWVKELHEQASKDIIIALVGNKIDMLQEGGERKVAREEGEKLAEEKGLLFFETSAKTGENVNDVFLGIGEKIPLKTAEEQNSASNERESNNQRVDLNAANDGTSANSACSC
Turning to B1, the binding result is recorded as “binds”.

The record behind these values is publication PMC3386215 (Molecular Biology of the Cell, 2012).
